Results: US8003609B2, “Method for ameliorating pain by modification of NMDA receptors through inhibition of Src” (The Hospital for Sick Children, priority 2004, dated 2011)

Key:
ND2.3-GST = biological target: T1, ND2.3-GST (Homo sapiens, UniProt P03891); test: dot blot of biotinylated Src peptides on ND2.3-GST; assay type: binding; conditions: biotinylated peptide
T1 construct: amino acids 1-188 (ND2.3-GST); made in house; host or cells: bacteria
Description: (§1) Src, Fyn, and ND2 recombinant proteins were prepared. The cDNAs encoding the SH3 and SH2 domains of mouse n-Src and Fyn were PCR subcloned, ligated in frame into pGEX4T-1 (Amersham Pharmacia Biotech, Baie d'Urfé, Québec), and sequenced. These plasmids, as well as plasmids encoding the unique domains of Src and Fyn in pGEX2T'6, were transformed into BL21 bacteria, and GST fusion proteins were purified by glutathione affinity chromatography. To create the ND2.1, ND2.2, and ND2.3 GST fusion proteins, cDNAs encoding amino acids 239-321 (ND2.1-GST; SEQ ID NO:7), amino acids 189-238 (ND2.2-GST; SEQ ID NO:11), and amino acids 1-188 (ND2.3-GST; SEQ ID NO:13) of human ND2 were PCR subcloned and ligated into pGEX4T-1 (the nucleotide sequence encoding ND2 is SEQ ID NO:8 and the amino acid sequence is SEQ ID NO:9; the nucleotide sequences encoding ND2.1; ND2.2 and ND2.3 are SEQ ID NOS:6, 10 and 12, respectively). Using PCR-based single nucleotide mutagenesis, all cDNAs encoding ND2 fusion proteins were corrected for differences between mitochondrial and nuclear codons to prevent premature translation termination and protein truncation. […]
(§2) Src40-58 and scrambled Src peptides were biotinylated by incubating with Sulfo-NHS-Biotin (Pierce Chemical Co., Rockford, Ill.) for 30 minutes at room temperature (SEQ ID NO:4, Src protein). […] Bound probe was then detected on film using an ECL kit.

ND2.1-GST = biological target: T2, ND2.1-GST (Homo sapiens, UniProt P03891, A265T); test: in vitro binding of biotinylated Src peptides to ND2.1-GST (blot / dot blot); conditions: biotinylated peptide, streptavidin-HRP detection
T2 construct: made in house; host or cells: bacteria
Description: Src, Fyn, and ND2 recombinant proteins were prepared. The cDNAs encoding the SH3 and SH2 domains of mouse n-Src and Fyn were PCR subcloned, ligated in frame into pGEX4T-1 (Amersham Pharmacia Biotech, Baie d'Urfé, Québec), and sequenced. These plasmids, as well as plasmids encoding the unique domains of Src and Fyn in pGEX2T'6, were transformed into BL21 bacteria, and GST fusion proteins were purified by glutathione affinity chromatography. To create the ND2.1, ND2.2, and ND2.3 GST fusion proteins, cDNAs encoding amino acids 239-321 (ND2.1-GST; SEQ ID NO:7), amino acids 189-238 (ND2.2-GST; SEQ ID NO:11), and amino acids 1-188 (ND2.3-GST; SEQ ID NO:13) of human ND2 were PCR subcloned and ligated into pGEX4T-1 (the nucleotide sequence encoding ND2 is SEQ ID NO:8 and the amino acid sequence is SEQ ID NO:9; the nucleotide sequences encoding ND2.1; ND2.2 and ND2.3 are SEQ ID NOS:6, 10 and 12, respectively). Using PCR-based single nucleotide mutagenesis, all cDNAs encoding ND2 fusion proteins were corrected for differences between mitochondrial and nuclear codons to prevent premature translation termination and protein truncation. All constructs were then confirmed by sequencing. The plasmids were transformed into bacteria, and GST fusion proteins were purified by glutathione affinity chromatography.
as §2
To detect the binding of ND2.1-GST with Src peptides, the ND2.1-GST fusion protein was purified on glutathione SEPHAROSE. […] Bound probe was then detected on film using an ECL kit (Amersham Pharmacia Biotech, Baie d'Urfé, Québec).
Src40-58, Src40-49, Src49-58, scrambled Src40-58, TAT-Src40-49, and scrambled TAT-Src40-49 peptides were biotinylated by incubating with Sulfo-NHS-Biotin (Pierce Chemical Co., Rockford, Ill.) for 30 minutes at room temperature. […] Bound probe was then detected on film using an ECL kit.

AMPA receptor = test: mEPSC whole cell recordings in cultured hippocampal neurons, AMPA receptor component; assay type: cell-based, rat; conditions: under the recording conditions used
Description: (§3) Fetal rat hippocampal neurons were prepared, cultured, and used for electrophysiological recordings 12-17 days after plating. Methods for whole cell recordings are described in Pelkey et al. (Neuron 34:127-138 2002).
(§4) In contrast, in control experiments administering EPQ(pY)EEIPIA (SEQ ID NO:5) increased the NMDAR component of mEPSCs by 172±28% and application of Src40-58 decreased the NMDAR component to 56±4% (FIGS. 5D-F). […] Composite traces are shown in black, the NMDAR component in dark grey, and the AMPAR component in light grey. Scale bars are 50 ms/10 pA. […] NMDA component data were calculated as Q20′/Q2′, and AMPA component data were calculated as A20′/A2′. […] An * indicates a significant difference, Student's t-test, p<0.05. Taking our results together, it is concluded that Src-dependent regulation of the activity of NMDARs depends on expression of ND2 through its anchoring of Src to the NMDAR complex.

[1] = biological target: T3, interaction between the ND2.1-GST and Src unique domain proteins (Homo sapiens, UniProt P03891, A265T); test: ND2.1-GST probed with biotinylated Src unique domain in the presence of peptide or antibody; assay type: binding; conditions: in vitro, ND2.1-GST incubated with peptide
T3 construct: made in house; host or cells: BL21 bacteria
Source text: Detailed protocols for in vitro binding assays, pull down assays, immunoblotting, and co-immunoprecipitation techniques can be found in Pelkey et al. (Neuron 34:127-138 2002).
ND2 acts as an adapter protein for Src. […] Furthermore, the effect of Src40-58 on the interaction between Src and ND2 was examined (FIGS. 4D and 4E). […] Thus, it was concluded that amino acids 40-58 of Src interact with the region spanned by ND2.1, thereby mediating the binding between the Src unique domain and ND2.

ND2.2-GST = biological target: T4, ND2.2-GST (Homo sapiens, UniProt P03891); test: dot blot of biotinylated Src peptides on ND2.2-GST; assay type: binding; conditions: biotinylated peptide
T4 construct: amino acids 189-238 (ND2.2-GST); made in house; host or cells: bacteria
Description: as §1, §2

LTP in CA1 neurons = conditions: cited from earlier work
NMDAR = test: mEPSC whole cell recordings in cultured hippocampal neurons, NMDAR component; assay type: cell-based, rat
Description: as §3, §4

T4 sequence (P03891 189-238): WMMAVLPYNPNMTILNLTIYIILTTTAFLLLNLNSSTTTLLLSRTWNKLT
T3 sequence (P03891 239-318 A265T): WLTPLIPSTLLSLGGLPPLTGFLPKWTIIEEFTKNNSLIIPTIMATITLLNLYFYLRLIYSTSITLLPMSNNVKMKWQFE
T2 sequence (P03891 239-318 A265T): as above
T1 sequence (P03891 1-188): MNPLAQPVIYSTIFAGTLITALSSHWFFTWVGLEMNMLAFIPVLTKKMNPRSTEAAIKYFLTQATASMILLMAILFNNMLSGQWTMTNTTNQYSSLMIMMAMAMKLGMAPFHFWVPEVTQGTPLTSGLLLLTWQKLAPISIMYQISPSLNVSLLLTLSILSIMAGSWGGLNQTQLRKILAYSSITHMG

Src40-58: peptide comprising amino acid residues 40-58 of SEQ ID NO:4 (Src) (PASADGHRGPSAAFAPAAA; listed as Homo sapiens)
binding to ND2.3-GST (ND2.3-GST): Neither Src40-58 nor scrambled Src40-58 bound
binding to ND2.1-GST (ND2.1-GST): bind directly
AMPA receptor component of the mEPSCs (AMPA receptor): neither of these reagents affected
effect on ND2.1-GST pulling down the Src unique domain protein [1]: prevented
binding to ND2.2-GST (ND2.2-GST): Neither Src40-58 nor scrambled Src40-58 bound
LTP in CA1 neurons (LTP in CA1 neurons): prevented
NMDAR component of mEPSCs, decreased to (NMDAR; control experiments, cultured hippocampal neurons): 56±4%
NMDAR component of the mEPSCs (NMDAR; neurons treated with chloramphenicol for 48 hours): not affected
